Measured values reported in PMC12192683.

Target: low-density lipoprotein receptor-related protein 1 (LRP1), full-length, purified from human placenta (human) (UniProt Q07954)
Test: SPR; Biacore 3000; receptor amine-coupled to CM5 chip; ligand flowed in HBS-P (0.01 M HEPES pH 7.4, 0.15 M NaCl, 0.005% P20) with 1 mM CaCl2, 10 ul/min, 25 C; kinetic fit to a 1:1 Langmuir model

Sequence of low-density lipoprotein receptor-related protein 1 (LRP1), full-length, purified from human placenta (human) (Q07954 20-4544): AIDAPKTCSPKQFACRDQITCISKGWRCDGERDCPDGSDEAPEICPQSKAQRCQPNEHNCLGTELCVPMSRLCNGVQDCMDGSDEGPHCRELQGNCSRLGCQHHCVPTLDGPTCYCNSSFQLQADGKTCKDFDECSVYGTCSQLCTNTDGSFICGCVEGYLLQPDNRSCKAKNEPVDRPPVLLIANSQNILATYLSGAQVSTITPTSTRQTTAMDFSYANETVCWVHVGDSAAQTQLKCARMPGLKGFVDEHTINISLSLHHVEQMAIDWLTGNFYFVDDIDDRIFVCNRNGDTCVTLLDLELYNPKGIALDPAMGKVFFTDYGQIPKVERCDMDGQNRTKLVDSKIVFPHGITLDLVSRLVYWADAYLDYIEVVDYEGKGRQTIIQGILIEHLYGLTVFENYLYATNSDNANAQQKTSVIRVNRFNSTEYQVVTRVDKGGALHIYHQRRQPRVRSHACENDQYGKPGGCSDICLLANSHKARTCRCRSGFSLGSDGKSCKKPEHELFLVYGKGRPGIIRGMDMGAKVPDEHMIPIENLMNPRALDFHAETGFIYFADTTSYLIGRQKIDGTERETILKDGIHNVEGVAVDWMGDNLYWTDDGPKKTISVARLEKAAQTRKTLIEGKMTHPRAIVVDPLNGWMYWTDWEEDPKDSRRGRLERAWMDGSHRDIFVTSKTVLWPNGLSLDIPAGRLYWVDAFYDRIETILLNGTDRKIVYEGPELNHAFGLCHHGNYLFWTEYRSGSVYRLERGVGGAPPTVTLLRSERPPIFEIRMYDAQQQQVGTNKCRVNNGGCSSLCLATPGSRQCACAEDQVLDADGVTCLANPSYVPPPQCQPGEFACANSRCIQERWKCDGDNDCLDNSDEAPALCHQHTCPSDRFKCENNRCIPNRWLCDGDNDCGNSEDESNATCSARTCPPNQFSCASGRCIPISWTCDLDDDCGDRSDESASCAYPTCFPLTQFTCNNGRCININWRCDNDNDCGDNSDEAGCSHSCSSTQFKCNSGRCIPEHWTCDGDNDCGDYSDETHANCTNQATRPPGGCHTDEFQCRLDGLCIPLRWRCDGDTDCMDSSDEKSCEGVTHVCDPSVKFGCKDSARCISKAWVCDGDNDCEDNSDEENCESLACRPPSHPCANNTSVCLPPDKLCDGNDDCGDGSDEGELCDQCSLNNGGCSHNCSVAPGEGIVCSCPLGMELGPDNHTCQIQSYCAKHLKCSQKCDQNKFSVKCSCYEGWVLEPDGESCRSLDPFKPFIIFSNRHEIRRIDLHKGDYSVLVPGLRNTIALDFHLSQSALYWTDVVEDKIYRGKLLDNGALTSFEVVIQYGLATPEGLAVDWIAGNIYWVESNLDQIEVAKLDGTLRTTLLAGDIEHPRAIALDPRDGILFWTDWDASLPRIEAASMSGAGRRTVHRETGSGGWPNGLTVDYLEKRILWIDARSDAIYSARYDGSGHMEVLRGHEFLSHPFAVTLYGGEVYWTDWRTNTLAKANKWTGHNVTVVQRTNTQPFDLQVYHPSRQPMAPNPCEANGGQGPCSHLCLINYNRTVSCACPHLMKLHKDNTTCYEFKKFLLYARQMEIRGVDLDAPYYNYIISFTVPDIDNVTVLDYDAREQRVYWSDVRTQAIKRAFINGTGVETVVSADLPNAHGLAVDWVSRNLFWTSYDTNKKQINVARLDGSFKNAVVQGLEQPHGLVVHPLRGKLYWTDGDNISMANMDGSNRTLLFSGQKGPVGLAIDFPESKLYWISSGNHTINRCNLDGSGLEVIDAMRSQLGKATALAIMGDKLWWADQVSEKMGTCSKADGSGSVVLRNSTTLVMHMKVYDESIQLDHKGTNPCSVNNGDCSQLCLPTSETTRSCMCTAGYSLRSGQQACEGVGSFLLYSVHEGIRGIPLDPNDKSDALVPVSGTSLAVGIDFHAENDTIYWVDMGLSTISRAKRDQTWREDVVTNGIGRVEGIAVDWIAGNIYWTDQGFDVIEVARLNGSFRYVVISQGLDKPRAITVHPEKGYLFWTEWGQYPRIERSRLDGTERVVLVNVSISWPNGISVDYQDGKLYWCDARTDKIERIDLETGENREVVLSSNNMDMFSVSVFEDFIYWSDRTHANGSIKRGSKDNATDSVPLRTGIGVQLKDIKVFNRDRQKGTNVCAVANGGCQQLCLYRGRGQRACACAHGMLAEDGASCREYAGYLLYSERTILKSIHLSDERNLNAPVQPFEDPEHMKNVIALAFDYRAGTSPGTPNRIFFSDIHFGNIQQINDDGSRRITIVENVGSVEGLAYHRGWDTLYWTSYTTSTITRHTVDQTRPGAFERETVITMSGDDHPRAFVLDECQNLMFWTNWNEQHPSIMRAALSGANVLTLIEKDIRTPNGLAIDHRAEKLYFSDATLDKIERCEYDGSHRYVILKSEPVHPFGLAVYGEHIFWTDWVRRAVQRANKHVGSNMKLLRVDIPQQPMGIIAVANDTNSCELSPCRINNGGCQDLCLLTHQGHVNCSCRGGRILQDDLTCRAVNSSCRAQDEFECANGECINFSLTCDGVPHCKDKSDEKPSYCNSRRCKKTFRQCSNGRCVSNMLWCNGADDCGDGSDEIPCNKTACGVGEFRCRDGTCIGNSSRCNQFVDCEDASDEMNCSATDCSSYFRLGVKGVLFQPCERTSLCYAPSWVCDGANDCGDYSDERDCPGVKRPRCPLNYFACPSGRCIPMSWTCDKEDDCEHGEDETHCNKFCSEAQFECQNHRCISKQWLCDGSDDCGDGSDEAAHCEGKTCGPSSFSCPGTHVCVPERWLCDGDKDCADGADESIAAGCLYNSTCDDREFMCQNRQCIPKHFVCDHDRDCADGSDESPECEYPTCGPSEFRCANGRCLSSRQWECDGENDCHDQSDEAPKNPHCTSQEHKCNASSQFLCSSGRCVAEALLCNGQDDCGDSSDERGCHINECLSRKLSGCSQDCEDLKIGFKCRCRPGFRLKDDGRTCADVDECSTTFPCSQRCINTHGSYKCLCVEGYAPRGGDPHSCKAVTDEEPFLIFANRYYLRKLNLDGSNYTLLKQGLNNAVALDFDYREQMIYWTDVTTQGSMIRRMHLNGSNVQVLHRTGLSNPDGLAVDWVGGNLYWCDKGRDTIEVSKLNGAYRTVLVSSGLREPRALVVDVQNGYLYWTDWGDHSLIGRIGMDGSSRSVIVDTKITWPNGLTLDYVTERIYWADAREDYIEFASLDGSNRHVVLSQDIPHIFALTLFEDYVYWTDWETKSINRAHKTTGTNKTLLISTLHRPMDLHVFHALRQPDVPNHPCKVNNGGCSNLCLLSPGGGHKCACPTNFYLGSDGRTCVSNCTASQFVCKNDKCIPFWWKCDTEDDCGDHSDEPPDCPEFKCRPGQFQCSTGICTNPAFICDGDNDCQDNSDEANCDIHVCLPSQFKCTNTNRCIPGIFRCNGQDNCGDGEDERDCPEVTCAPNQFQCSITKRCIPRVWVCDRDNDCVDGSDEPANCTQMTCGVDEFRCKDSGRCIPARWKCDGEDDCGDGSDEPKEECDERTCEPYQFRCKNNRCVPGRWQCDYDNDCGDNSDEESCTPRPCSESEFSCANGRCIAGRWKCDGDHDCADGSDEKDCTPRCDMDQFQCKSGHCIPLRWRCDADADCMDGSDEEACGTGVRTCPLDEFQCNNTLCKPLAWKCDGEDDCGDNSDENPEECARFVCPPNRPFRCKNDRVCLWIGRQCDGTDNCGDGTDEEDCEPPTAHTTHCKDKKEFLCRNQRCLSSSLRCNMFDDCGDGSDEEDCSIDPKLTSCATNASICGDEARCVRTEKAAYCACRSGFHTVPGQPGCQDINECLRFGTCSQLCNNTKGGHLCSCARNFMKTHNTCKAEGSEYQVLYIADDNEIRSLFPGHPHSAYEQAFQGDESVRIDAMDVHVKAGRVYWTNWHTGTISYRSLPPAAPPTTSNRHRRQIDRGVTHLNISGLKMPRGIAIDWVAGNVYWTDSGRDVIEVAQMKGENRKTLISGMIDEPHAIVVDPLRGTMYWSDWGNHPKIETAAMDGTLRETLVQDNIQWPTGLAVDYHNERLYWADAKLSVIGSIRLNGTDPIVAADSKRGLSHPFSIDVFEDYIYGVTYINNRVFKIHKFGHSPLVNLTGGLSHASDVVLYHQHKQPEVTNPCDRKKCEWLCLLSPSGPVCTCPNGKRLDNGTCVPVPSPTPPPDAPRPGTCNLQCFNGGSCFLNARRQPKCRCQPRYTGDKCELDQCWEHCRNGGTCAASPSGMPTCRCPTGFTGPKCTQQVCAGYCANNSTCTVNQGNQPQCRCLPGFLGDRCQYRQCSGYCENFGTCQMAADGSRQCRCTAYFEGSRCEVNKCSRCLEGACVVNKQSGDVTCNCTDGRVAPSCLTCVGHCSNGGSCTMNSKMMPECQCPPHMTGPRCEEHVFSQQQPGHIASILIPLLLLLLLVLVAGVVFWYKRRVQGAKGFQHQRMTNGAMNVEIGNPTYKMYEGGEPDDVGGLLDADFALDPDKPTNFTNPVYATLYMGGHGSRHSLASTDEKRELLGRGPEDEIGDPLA

SARS-CoV-2 trimeric spike protein, stabilized in prefusion conformation (from UniProt P0DTC2 14-1273) (natural protein)
Kd: 72 nM | koff: 0.00034 s⁻¹ | kon: 4800 M⁻¹ s⁻¹
